Results: patent publication US20110263454A1, “Methods of Identifying Functional Characteristics of Promoters, Transcription Modifying Proteins and Transcription Modulating Agents” (Salk Institute for Biological Studies, priority 2008, published 2011)

B1: RORb: RAR-related Orphan Receptor β (NR1F2), cDNA driver (protein, UniProt Q92753 1-470, looked up)
Nuclear receptor ROR-beta: MCENQLKTKADATAQIEVIPCKICGDKSSGIHYGVITCEGCKGFFRRSQQNNASYSCPRQRNCLIDRTNRNRCQHCRLQKCLALGMSRDAVKFGRMSKKQRDSLYAEVQKHQQRLQEQRQQQSGEAEALARVYSSSISNGLSNLNNETSGTYANGHVIDLPKSEGYYNVDSGQPSPDQSGLDMTGIKQIKQEPIYDLTSVPNLFTYSSFNNGQLAPGITMTEIDRIAQNIIKSHLETCQYTMEELHQLAWQTHTYEEIKAYQSKSREALWQQCAIQITHAIQYVVEFAKRITGFMELCQNDQILLLKSGCLEVVLVRMCRAFNPLNNTVLFEGKYGGMQMFKALGSDDLVNEAFDFAKNLCSLQLTEEEIALFSSAVLISPDRAWLIEPRKVQKLQEKIYFALQHVIQKNHLDDETLAKLIAKIPTITAVCNLHGEKLQVFKQSHPEIVNTLFPPLYKELFNPDCATGCK
B2: HNF4g: Hepatocyte Nuclear Factor γ (NR2A2), cDNA driver (protein, UniProt Q14541 1-408, looked up)
Hepatocyte nuclear factor …: MNTTDNGVNCLCAICGDRATGKHYGASSCDGCKGFFRRSIRKSHVYSCRFSRQCVVDKDKRNQCRYCRLRKCFRAGMKKEAVQNERDRISTRRSTFDGSNIPSINTLAQAEVRSRQISVSSPGSSTDINVKKIASIGDVCESMKQQLLVLVEWAKYIPAFCELPLDDQVALLRAHAGEHLLLGATKRSMMYKDILLLGNNYVIHRNSCEVEISRVANRVLDELVRPFQEIQIDDNEYACLKAIVFFDPDAKGLSDPVKIKNMRFQVQIGLEDYINDRQYDSRGRFGELLLLLPTLQSITWQMIEQIQFVKLFGMVKIDNLLQEMLLGGASNDGSHLHHPMHPHLSQDPLTGQTILLGPMSTLVHADQISTPETPLPSPPQGSGQEQYKIAANQASVISHQHLSKQKQL
B3: TR2: Testicular Orphan Nuclear Receptor 2 (NR2C1), cDNA driver (protein, UniProt P13056 1-603, looked up)
Nuclear receptor subfamily 2 …: MATIEEIAHQIIEQQMGEIVTEQQTGQKIQIVTALDHNTQGKQFILTNHDGSTPSKVILARQDSTPGKVFLTTPDAAGVNQLFFTTPDLSAQHLQLLTDNSPDQGPNKVFDLCVVCGDKASGRHYGAVTCEGCKGFFKRSIRKNLVYSCRGSKDCIINKHHRNRCQYCRLQRCIAFGMKQDSVQCERKPIEVSREKSSNCAASTEKIYIRKDLRSPLTATPTFVTDSESTRSTGLLDSGMFMNIHPSGVKTESAVLMTSDKAESCQGDLSTLANVVTSLANLGKTKDLSQNSNEMSMIESLSNDDTSLCEFQEMQTNGDVSRAFDTLAKALNPGESTACQSSVAGMEGSVHLITGDSSINYTEKEGPLLSDSHVAFRLTMPSPMPEYLNVHYIGESASRLLFLSMHWALSIPSFQALGQENSISLVKAYWNELFTLGLAQCWQVMNVATILATFVNCLHNSLQQDKMSTERRKLLMEHIFKLQEFCNSMVKLCIDGYEYAYLKAIVLFSPDHPSLENMEQIEKFQEKAYVEFQDYITKTYPDDTYRLSRLLLRLPALRLMNATITEELFFKGLIGNIRIDSVIPHILKMEPADYNSQIIGHSI
B4: TR4: Testicular Orphan Nuclear Receptor 4 (NR2C2), cDNA driver (protein, UniProt P49116 1-596, looked up)
Nuclear receptor subfamily 2 …: MTSPSPRIQIISTDSAVASPQRIQIVTDQQTGQKIQIVTAVDASGSPKQQFILTSPDGAGTGKVILASPETSSAKQLIFTTSDNLVPGRIQIVTDSASVERLLGKTDVQRPQVVEYCVVCGDKASGRHYGAVSCEGCKGFFKRSVRKNLTYSCRSNQDCIINKHHRNRCQFCRLKKCLEMGMKMESVQSERKPFDVQREKPSNCAASTEKIYIRKDLRSPLIATPTFVADKDGARQTGLLDPGMLVNIQQPLIREDGTVLLATDSKAETSQGALGTLANVVTSLANLSESLNNGDTSEIQPEDQSASEITRAFDTLAKALNTTDSSSSPSLADGIDTSGGGSIHVISRDQSTPIIEVEGPLLSDTHVTFKLTMPSPMPEYLNVHYICESASRLLFLSMHWARSIPAFQALGQDCNTSLVRACWNELFTLGLAQCAQVMSLSTILAAIVNHLQNSIQEDKLSGDRIKQVMEHIWKLQEFCNSMAKLDIDGYEYAYLKAIVLFSPDHPGLTSTSQIEKFQEKAQMELQDYVQKTYSEDTYRLARILVRLPALRLMSSNITEELFFTGLIGNVSIDSIIPYILKMETAEYNGQITGASL
B5: Erb: Estrogen Receptor β (NR3A2, ERb), cDNA driver (protein, UniProt Q92731 1-530, looked up)
Estrogen receptor beta: MDIKNSPSSLNSPSSYNCSQSILPLEHGSIYIPSSYVDSHHEYPAMTFYSPAVMNYSIPSNVTNLEGGPGRQTTSPNVLWPTPGHLSPLVVHRQLSHLYAEPQKSPWCEARSLEHTLPVNRETLKRKVSGNRCASPVTGPGSKRDAHFCAVCSDYASGYHYGVWSCEGCKAFFKRSIQGHNDYICPATNQCTIDKNRRKSCQACRLRKCYEVGMVKCGSRRERCGYRLVRRQRSADEQLHCAGKAKRSGGHAPRVRELLLDALSPEQLVLTLLEAEPPHVLISRPSAPFTEASMMMSLTKLADKELVHMISWAKKIPGFVELSLFDQVRLLESCWMEVLMMGLMWRSIDHPGKLIFAPDLVLDRDEGKCVEGILEIFDMLLATTSRFRELKLQHKEYLCVKAMILLNSSMYPLVTATQDADSSRKLAHLLNAVTDALVWVIAKSGISSQQQSMRLANLLMLLSHVRHASNKGMEHLLNMKCKNVVPVYDLLLEMLNAHVLRGCKSSITGSECSPAEDSKSKEGSQNPQSQ
B6: ERR2: Estrogen Related Receptor β (NR3B2, ERRb), cDNA driver (protein, UniProt O95718 1-433, looked up)
Steroid hormone receptor ERR2: MSSDDRHLGSSCGSFIKTEPSSPSSGIDALSHHSPSGSSDASGGFGLALGTHANGLDSPPMFAGAGLGGTPCRKSYEDCASGIMEDSAIKCEYMLNAIPKRLCLVCGDIASGYHYGVASCEACKAFFKRTIQGNIEYSCPATNECEITKRRRKSCQACRFMKCLKVGMLKEGVRLDRVRGGRQKYKRRLDSESSPYLSLQISPPAKKPLTKIVSYLLVAEPDKLYAMPPPGMPEGDIKALTTLCDLADRELVVIIGWAKHIPGFSSLSLGDQMSLLQSAWMEILILGIVYRSLPYDDKLVYAEDYIMDEEHSRLAGLLELYRAILQLVRRYKKLKVEKEEFVTLKALALANSDSMYIEDLEAVQKLQDLLHEALQDYELSQRHEEPWRTGKLLLTLPLLRQTAAKAVQHFYSVKLQGKVPMHKLFLEMLEAKV

System: mDio2 promoter
Assay: NHR-promoter luciferase screen, mDio2 promoter
Type: cell-based, mouse
Conditions: Dio2; HR component without or with its ligand
Procedure, shortened: (§1)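 CV-1 cells were co-transfected with 50 ng NHR (homodimer or NHR/RXR heterodimer), 100 ng promoter-luciferase construct and 50 ng LacZ. Luciferase was normalized to LacZ and to a no-NHR/no-ligand control.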

Row | Molecule | Luc. act., normalized to lacZ | Normalized Luc. act., normalized to control
1 | B1 | 23.1 | 1.5
2 | B2 | 18.0 | 1.1
3 | B3 | 33.8 | 2.2
4 | B4 | 51.9 | 3.3
5 | B5 | 19.9 | 1.3
6 | B6 | 39.5 | 2.5

Same assay, conditions: transcription factor +/- ligand; control = 1.00

Row | Molecule | mDio2 promoter reporter activity
7 | B1 | 1.47
8 | B2 | 1.14
9 | B3 | 2.15
10 | B4 | 3.31
11 | B5 | 1.27
12 | B6 | 2.52

System: mDio1 promoter
Assay: NHR-promoter luciferase screen, mDio1 promoter
Type: cell-based, mouse
Conditions: Dio1; HR component without or with its ligand
Procedure, shortened: as §1

Row | Molecule | Luc. act., normalized to lacZ | Normalized Luc. act., normalized to control
13 | B1 | 6.4 | 1.4
14 | B2 | 15.6 | 3.5
15 | B3 | 14.8 | 3.3
16 | B4 | 56.0 | 12.6
17 | B5 | 9.3 | 2.1
18 | B6 | 13.6 | 3.1

Same assay, conditions: transcription factor +/- ligand; control = 1.00

Row | Molecule | mDio1 promoter reporter activity
19 | B1 | 1.44
20 | B2 | 3.49
21 | B3 | 3.32
22 | B4 | 12.55
23 | B5 | 2.09
24 | B6 | 3.05

System: RevErba promoter
Assay: NHR-promoter luciferase screen, RevErba (RVRa) promoter
Type: cell-based
Design: key to mRevErba promoter reporter activity / Normalized Luc. act., normalized to control: luciferase activity normalized to lacZ and to control (no NHR/ligand)
Conditions: RVRa promoter; HR component without or with ligand
Procedure, shortened: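 CV-1 cells co-transfected with NHR (pcDNA3.1, C-terminal V5H6 tag) as homodimer or RXR heterodimer, RevErbα promoter–luciferase reporter and LacZ transfection control; ligand added where applicable. Luciferase normalized to LacZ and to no-NHR/no-ligand control.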

Row | Molecule | Luc. act., normalized to lacZ | Normalized Luc. act., normalized to control
25 | B1 | 29.93 | 1.1
26 | B2 | 28.15 | 1.0
27 | B3 | 52.3 | 1.9
28 | B4 | 26.5 | 0.9
29 | B5 | 20.0 | 0.7
30 | B6 | 42.3 | 1.5

Same assay, conditions: RVRa promoter; given only where activity is below control

Row | Molecule | negative reciprocal of normalized Luc. act. (fold repression; Table 33)
31 | B4 | −1.054
32 | B5 | −1.397

Same assay, conditions: RVRa promoter; log10 of activity normalized to control

Row | Molecule | normalized Luc. act. on a logarithmic scale (column without head, Table 33)
33 | B1 | 0.03
34 | B2 | 0.00
35 | B3 | 0.27
36 | B4 | −0.02
37 | B5 | −0.15
38 | B6 | 0.18

Same assay, conditions: transcription factor +/- ligand; control = 1.00

Row | Molecule | mRevErba promoter reporter activity
39 | B1 | 1.07
40 | B2 | 1.01
41 | B3 | 1.87
42 | B4 | 0.95
43 | B5 | 0.72
44 | B6 | 1.51

System: mCAR promoter
Assay: NHR-promoter luciferase screen, mCAR promoter
Type: cell-based, mouse
Conditions: mCAR promoter-luciferase, CV-1 cells, NHR +/- ligand, control = 1.00
Procedure, shortened: as §1

Row | Molecule | luciferase activity normalized to lacZ activity and to a control, mCAR
45 | B1 | 1.15
46 | B2 | 1.43
47 | B3 | 0.81
48 | B4 | 2.52
49 | B5 | 1.18
50 | B6 | 0.99

Same assay, conditions: mCAR promoter; HR/ligand component

Row | Molecule | Luc. act., normalized to lacZ | Normalized Luc. act., normalized to control
51 | B1 | 43.7 | 1.1
52 | B2 | 54.5 | 1.4
53 | B3 | 31.0 | 0.8
54 | B4 | 96.2 | 2.5
55 | B5 | 44.8 | 1.2
56 | B6 | 37.8 | 1.0

System: mPOMC promoter
Assay: NHR-promoter luciferase screen, mPOMC promoter
Type: cell-based, mouse
Conditions: Table 6d; luciferase activity relative to control (control = 1.00)
Procedure, shortened: as §1

Row | Molecule | Results of assays of transcription factor (+/- ligand) with mPOMC
57 | B1 | 1.29
58 | B2 | 1.07
59 | B3 | 1.92
60 | B4 | 3.75
61 | B5 | 1.00
62 | B6 | 1.57

Same assay, conditions: mPOMC promoter; HR component with or without ligand

Row | Molecule | Luc. act., normalized to lacZ
63 | B1 | 88.7
64 | B2 | 73.9
65 | B3 | 132.1
66 | B4 | 258.7
67 | B5 | 69.1
68 | B6 | 108.6

Same assay, conditions: mPOMC promoter; HR component with or without ligand; relative to control

Row | Molecule | Normalized Luc. act., normalized to control
69 | B1 | 1.3
70 | B2 | 1.1
71 | B3 | 1.9
72 | B4 | 3.8
73 | B5 | 1.0
74 | B6 | 1.6
